Residue numbers refer to the chain shown, from its start.
B1: Humanized version I of EP101 (hu IgG1) (antibody, V domains shown)
VH: QMQLVQSGPEVKKPGTSVKVSCKASGFTFTDYSMNWVRQARGQRLEWLGFIRNKANDYTTEYSASVKGRVTITRDMSTSTAYMELSSLRSEDTAVYYCARYPRYHAMDSWGQGTSVTVSS
VL: DIVMTQSPSSLSASVGDRVTIICRASQSISNNLHWYQQKPGKAPKLLIKYVFQSISGVPSRFSGSGSGTDFTFTISSLQPEDFATYYCQQSNSWPLTFGGGTKVEIK
B2: Humanized version III of EP101 (hu IgG1) (antibody, V domains shown)
VH: B1 VH with L48I
VL: B1 VL
B3: Humanized version II of EP101 (hu IgG1) (antibody, V domains shown)
VH: B1 VH with L48I
VL: B1 VL with V3Q, I22T
B4: Mouse version of EP101 (mouse IgG) (antibody, V domains shown)
VH: EVKLVESGGGLVQPGGSLSLSCAASGFTFTDYSMNWVRQPPGKALEWLGFIRNKANDYTTEYSASVKGRFTISRDNSQSILYLQMNALRAEDSATYYCVRYPRYHAMDSWGQGTSVTVSS
VL: DIVLTQSPATLSVTPGDSVNLSCRASQSISNNLHWYQQKSHESPRLLIKYVFQSISGIPSRFSGSGSGTDFTLSINSVETEDFGMYFCQQSNSWPLTFGAGTKLELK
notes: Mouse IgG; also called anti-human EphA2 monoclonal antibody EP101; parental murine antibody
B5: Chimaeric version of EP101 (hu IgG1) (antibody, V domains shown)
VH: B4 VH
VL: B4 VL
notes: Chimeric Fab cloned and expressed as a full length human IgG1; also called chimeric version of anti-EphA2 antibody

Molecular target: T1, human EphA2 (human, UniProt P29317 24-534, limits assumed)
T1 construct: Target of the BIAcore analysis as named in the text
Experiment: BIAcore; format not stated

T1 sequence (P29317 24-534 limits assumed): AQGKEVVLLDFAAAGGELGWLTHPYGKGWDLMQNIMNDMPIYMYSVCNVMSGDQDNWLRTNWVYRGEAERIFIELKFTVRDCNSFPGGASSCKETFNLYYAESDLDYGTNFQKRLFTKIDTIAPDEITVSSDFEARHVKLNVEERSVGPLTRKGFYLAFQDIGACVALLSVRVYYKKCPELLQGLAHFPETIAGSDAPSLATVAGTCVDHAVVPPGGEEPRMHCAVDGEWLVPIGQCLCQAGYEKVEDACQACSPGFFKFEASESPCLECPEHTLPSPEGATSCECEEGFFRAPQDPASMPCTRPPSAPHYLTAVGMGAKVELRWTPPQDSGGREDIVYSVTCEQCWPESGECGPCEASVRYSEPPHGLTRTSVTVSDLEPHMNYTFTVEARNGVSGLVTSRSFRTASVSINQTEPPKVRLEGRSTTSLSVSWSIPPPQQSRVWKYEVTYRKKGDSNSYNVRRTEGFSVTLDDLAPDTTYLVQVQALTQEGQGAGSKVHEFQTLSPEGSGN

Binder | Kd | koff | kon
B1 | 0.7 nM | 3.76e-05 s⁻¹ | 53200 M⁻¹ s⁻¹
B2 | 1.3 nM | 7.62e-05 s⁻¹ | 60000 M⁻¹ s⁻¹
B3 | 1.2 nM | 4.13e-05 s⁻¹ | 35600 M⁻¹ s⁻¹
B4 | 0.3 nM | 0.000101 s⁻¹ | 330000 M⁻¹ s⁻¹
B5 | 0.3 nM | 8.04e-05 s⁻¹ | 242000 M⁻¹ s⁻¹

From US20050042664A1 (AstraZeneca / MedImmune, published 2005)
